The supplement of paper PMC12042874
± gives the uncertainty stated by the source.

Test: amyloid nucleation score (Sup35N fusion, yeast selection) (log enrichment); library NNK2; higher = more nucleation; inactive = no reads after selection
Method in brief: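 Growth for 7 days at 30°C on medium lacking adenine and uracil followed a 24-hour induction with 100 μM copper sulfate of psi-negative yeast expressing peptides of 20 random codons fused to Sup35N. Input and output plasmid inserts were sequenced with Illumina, and sequences with under 100 input reads were excluded. Nucleation score is the DiMSum log enrichment of output over input reads, centred on the mode score of non-aggregating sequences.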

VMCTC and VMDLDAGTCWCISISGLTVR are within error of each other in amyloid nucleation score: 0.71 ± 0.48 for the first, 0.533 ± 0.35 for the second.

VMFILVYTLFP and VMFLFGGCTDNS are within error of each other in amyloid nucleation score: 0.068 ± 0.65 for the first, 0.382 ± 0.8 for the second.

Going from VMGGDVYTAFTDAEDVDSWG to VMTFMVTRTD, the amyloid nucleation score rises from 0.398 ± 0.22 to 6.111 ± 0.037.

Compared with VMTYVEQVLGNVSVLIAIIT, VMVGLALYLKARGSNVDCGL is higher in amyloid nucleation score: 0.015 ± 0.33 for the first, 3 ± 0.17 for the second.

Going from VMWLSVRL to VNAEGTVMQSWHCHCDMSVL, the amyloid nucleation score rises from 0.535 ± 0.44 to 6.245 ± 0.043.

VNDCYIILISIQALKGPICF and VNDKFHFILF are within error of each other in amyloid nucleation score: 0.465 ± 0.8 for the first, 0.019 ± 0.8 for the second.

VNDLLTPCGIHLQPVWDYES and VNGVSMMHKIVLVNR are within error of each other in amyloid nucleation score: -0.013 ± 0.49 for the first, 0.058 ± 1 for the second.

First: VNHLYYCFCTLITHEVRVVS
Second: VNIILASMHVLLDGCS
The amyloid nucleation score of the first is higher: 5.363 ± 0.034 for the first, -1.08 ± 0.64 for the second.

Going from VNIVSIVYKGDNN to VNLPD, the amyloid nucleation score falls from 7.72 ± 0.075 to 0.15 ± 0.56.

Going from VNMLTGLSKDK to VNMYSWVKVCWEILYTDRAG, the amyloid nucleation score falls from -0.142 ± 0.23 to -0.906 ± 0.41.

Compared with VNREYLLAVTVILQNVKTEE, VNSKNYV is lower in amyloid nucleation score: 8.609 ± 0.036 for the first, -0.075 ± 0.39 for the second.

Compared with VNTTDKWKVSEYKYQND, VNVCTYTWLHVINERFTFQW is higher in amyloid nucleation score: 0.254 ± 0.19 for the first, 6.192 ± 0.045 for the second.

Going from VNYVDGWV to VPIKALLPHSKFGNQSRFNY, the amyloid nucleation score falls from 1.45 ± 0.34 to 0.438 ± 0.4.

VQDAFVYFNAELRWYDILGQ and VQEERAFKWVR are within error of each other in amyloid nucleation score: -0.201 ± 0.37 for the first, 0.44 ± 0.42 for the second.

VQGTL and VQPVLCIVSCNRLNRQRAEM are within error of each other in amyloid nucleation score: -0.718 ± 0.39 for the first, -0.498 ± 1.1 for the second.

First: VQSGWTSKGVLPQVANRTLR
Second: VRATCWS
The amyloid nucleation score of the first is higher: 0.827 ± 0.44 for the first, -0.418 ± 0.55 for the second.

VREYYRVERGSFGRISGGCN and VRIIETGRC are within error of each other in amyloid nucleation score: -0.748 ± 0.78 for the first, 0.136 ± 0.39 for the second.

VRLFLPHIYKMSLRDGGFEP and VRLGRWLFTFSANTDTLANM are within error of each other in amyloid nucleation score: -0.349 ± 0.63 for the first, -0.729 ± 1.1 for the second.

Compared with VRLHGLLHANMGKTFMLLLS, VRMEVIFYC is higher in amyloid nucleation score: -0.486 ± 0.56 for the first, 2.54 ± 0.2 for the second.

VRMNPITAGLCVQCLHTQRF and VRPRAPSSADNPLQ are within error of each other in amyloid nucleation score: -0.654 ± 1 for the first, 0.121 ± 0.49 for the second.

VRRLLEAFWARKFFLVAITQ and VRVGVWSMTFG are within error of each other in amyloid nucleation score: -0.237 ± 0.79 for the first, -0.52 ± 0.78 for the second.

Going from VRWTRILVLIMFYAMSSTGT to VRYDCYMPDMCFSRDHCWFE, the amyloid nucleation score falls from 2.65 ± 0.073 to 0.079 ± 0.55.

Compared with VRYTVTRTRGRYMVKCCENV, VSAEWLYTGVWPMRLRSSGV is higher in amyloid nucleation score: 0.108 ± 0.2 for the first, 3.95 ± 0.055 for the second.

VSDNGFFNRYNMTNCRIHGV and VSEIRDFCVVIGF are within error of each other in amyloid nucleation score: 0.449 ± 0.57 for the first, 0.573 ± 0.36 for the second.

First: VSIPLIISTCASLSVCSMTW
Second: VSKSFFIVIV
The amyloid nucleation score of the first is higher: 8.067 ± 0.034 for the first, 5.702 ± 0.047 for the second.

Going from VSLRSDSGLGITVLMPPSRS to VSLWVIKASRVNPFYSPGGK, the amyloid nucleation score falls from 1.6 ± 0.44 to 0.301 ± 0.64.

Compared with VSLYRKGSASKEGGLERATD, VSMNDVLYLMCS is lower in amyloid nucleation score: 0.55 ± 0.3 for the first, -0.556 ± 0.25 for the second.

VSNRVLEMVSKEVASAKNQL and VSPAHPNYFPISP are within error of each other in amyloid nucleation score: 0.288 ± 0.34 for the first, -0.889 ± 1.1 for the second.

VSQVMLSK and VSRFDA are within error of each other in amyloid nucleation score: 0.626 ± 0.24 for the first, 0.306 ± 0.31 for the second.

VSSRYCTCRLCHPWYSFWFS and VSSYCIRML are within error of each other in amyloid nucleation score: -0.625 ± 0.54 for the first, 0.11 ± 0.76 for the second.

Going from VSVNSGSVKLFVIPACCSYD to VSYKWNGEWVRAPFDLQGCI, the amyloid nucleation score falls from 6.099 ± 0.055 to -0.464 ± 1.1.

First: VTFLGDIRYFRCWCL
Second: VTIFILFSLNSGGHGSDRVW
The amyloid nucleation score of the first is higher: 9.561 ± 0.077 for the first, 4.849 ± 0.031 for the second.

Going from VTLMSV to VTLQPFCSARSWLEMNVKFF, the amyloid nucleation score rises from 0.504 ± 0.74 to 4.44 ± 0.066.

First: VTRLFGIREFRG
Second: VTRTDVKPKVVGRRRARLCL
The amyloid nucleation score of the first is higher: 3.65 ± 0.053 for the first, 0.705 ± 0.44 for the second.

VTRVWYRTSDCDAYSHGNFL and VTTKKHPIYTVTRRDRKPGD are within error of each other in amyloid nucleation score: 0.991 ± 0.27 for the first, 0.524 ± 0.32 for the second.

VTVKYRVVTDVLRTMRNDSV and VTVRRCSFFQVY are within error of each other in amyloid nucleation score: 0.297 ± 0.34 for the first, -0.196 ± 0.41 for the second.

Compared with VTVRSFTNIRSTFKLDSPLL, VVCFMPSFYAGPKI is higher in amyloid nucleation score: 0.122 ± 0.29 for the first, 5.281 ± 0.041 for the second.

First: VVEGGRFLVDSRWKVVSRGC
Second: VVHSFEWNLRRLSTWWRWGF
The amyloid nucleation score of the first is lower: -0.719 ± 0.38 for the first, 0.217 ± 0.31 for the second.

First: VVIRCFYGTERNASWLLVCL
Second: VVKFYWCIVQCCTWNGMKSH
The amyloid nucleation score of the first is lower: -0.059 ± 0.24 for the first, 8.363 ± 0.067 for the second.

For VMSDGMYTGKAYSLVLDMRI, the amyloid nucleation score was “inactive”.
In the case of VNCIASSFSLPRRTLSNSMD, the amyloid nucleation score is reported as “inactive”.
With VPSGSLD the amyloid nucleation score was “inactive”.
With VQRYRVFVAICFCGEMQRGF the amyloid nucleation score was “inactive”.
For VRNKMSGPLMFIIGLDLSCN, the amyloid nucleation score was “inactive”.
In the case of VSSVVLCIIIRDGSMMFYYK, the amyloid nucleation score is reported as “inactive”.
In the case of VSWCFFDHYHSTILKHGTVS, the amyloid nucleation score is reported as “inactive”.
For VTKVCGYLEFSMQVYRCVFH, the amyloid nucleation score was “inactive”.
In the case of VTLRTANGDKWKTPASNI, the amyloid nucleation score is reported as “inactive”.
